# According to ChEMBL document CHEMBL4725261, “Design, synthesis and evaluation of carbamate-linked uridyl-based inhibitors of human ST6Gal I” (Bioorg Med Chem, 2020):
# B1: Beta-galactoside alpha-2,6-sialyltransferase 1 (Homo sapiens), P15907 (protein)
# chain: MIHTNLKKKFSCCVLVFLLFAVICVWKEKKKGSYYDSFKLQTKEFQVLKSLGKLAMGSDSQSVSSSSTQDPHRGRQTLGSLRGLAKAKPEASFQVWNKDSSSKNLIPRLQKIWKNYLSMNKYKVSYKGPGPGIKFSAEALRCHLRDHVNVSMVEVTDFPFNTSEWEGYLPKESIRTKAGPWGRCAVVSSAGSLKSSQLGREIDDHDAVLRFNGAPTANFQQDVGTKTTIRLMNSQLVTTEKRFLKDSLYNEGILIVWDPSVYHSDIPKWYQNPDYNFFNNYKTYRKLHPNQPFYILKPQMPWELWDILQEISPEEIQPNPPSSGMLGIIIMMTLCDQVDIYEFLPSKRKTDVCYYYQKFFDSACTMGAYHPLLYEKNLVKHLNQGTDEDIYLLGKATLPGFRTIHC
# Substrate: CC(=O)N[C@H]1[C@H]([C@H](O)[C@H](O)CO)O[C@](OP(=O)(O)OC[C@H]2O[C@@H](n3ccc(N)nc3=O)[C@H](O)[C@@H]2O)(C(=O)O)C[C@@H]1O
# Experiment: Binding affinity to recombinant human N-terminal 6His-tagged ST6Gal-1 (Glu44 to Cys406 residues)
protein,measurement,value
B1,Km,37.2 µM
